Key:
Assay in all cases: cell-based or functional assay
[1] = biological target: CaV2.2 in transfected neurons
[2] = biological target: CaV2.2 expressed in human embryonic kidney 293 (HEK293) cells
[3] = biological target: CaV2.2 in dorsal root ganglion neurons from Nf1+/- mice (mouse) (UniProt O55017)
Sequence of CaV2.2 in dorsal root ganglion neurons from Nf1+/- mice (mouse) (O55017 whole entry): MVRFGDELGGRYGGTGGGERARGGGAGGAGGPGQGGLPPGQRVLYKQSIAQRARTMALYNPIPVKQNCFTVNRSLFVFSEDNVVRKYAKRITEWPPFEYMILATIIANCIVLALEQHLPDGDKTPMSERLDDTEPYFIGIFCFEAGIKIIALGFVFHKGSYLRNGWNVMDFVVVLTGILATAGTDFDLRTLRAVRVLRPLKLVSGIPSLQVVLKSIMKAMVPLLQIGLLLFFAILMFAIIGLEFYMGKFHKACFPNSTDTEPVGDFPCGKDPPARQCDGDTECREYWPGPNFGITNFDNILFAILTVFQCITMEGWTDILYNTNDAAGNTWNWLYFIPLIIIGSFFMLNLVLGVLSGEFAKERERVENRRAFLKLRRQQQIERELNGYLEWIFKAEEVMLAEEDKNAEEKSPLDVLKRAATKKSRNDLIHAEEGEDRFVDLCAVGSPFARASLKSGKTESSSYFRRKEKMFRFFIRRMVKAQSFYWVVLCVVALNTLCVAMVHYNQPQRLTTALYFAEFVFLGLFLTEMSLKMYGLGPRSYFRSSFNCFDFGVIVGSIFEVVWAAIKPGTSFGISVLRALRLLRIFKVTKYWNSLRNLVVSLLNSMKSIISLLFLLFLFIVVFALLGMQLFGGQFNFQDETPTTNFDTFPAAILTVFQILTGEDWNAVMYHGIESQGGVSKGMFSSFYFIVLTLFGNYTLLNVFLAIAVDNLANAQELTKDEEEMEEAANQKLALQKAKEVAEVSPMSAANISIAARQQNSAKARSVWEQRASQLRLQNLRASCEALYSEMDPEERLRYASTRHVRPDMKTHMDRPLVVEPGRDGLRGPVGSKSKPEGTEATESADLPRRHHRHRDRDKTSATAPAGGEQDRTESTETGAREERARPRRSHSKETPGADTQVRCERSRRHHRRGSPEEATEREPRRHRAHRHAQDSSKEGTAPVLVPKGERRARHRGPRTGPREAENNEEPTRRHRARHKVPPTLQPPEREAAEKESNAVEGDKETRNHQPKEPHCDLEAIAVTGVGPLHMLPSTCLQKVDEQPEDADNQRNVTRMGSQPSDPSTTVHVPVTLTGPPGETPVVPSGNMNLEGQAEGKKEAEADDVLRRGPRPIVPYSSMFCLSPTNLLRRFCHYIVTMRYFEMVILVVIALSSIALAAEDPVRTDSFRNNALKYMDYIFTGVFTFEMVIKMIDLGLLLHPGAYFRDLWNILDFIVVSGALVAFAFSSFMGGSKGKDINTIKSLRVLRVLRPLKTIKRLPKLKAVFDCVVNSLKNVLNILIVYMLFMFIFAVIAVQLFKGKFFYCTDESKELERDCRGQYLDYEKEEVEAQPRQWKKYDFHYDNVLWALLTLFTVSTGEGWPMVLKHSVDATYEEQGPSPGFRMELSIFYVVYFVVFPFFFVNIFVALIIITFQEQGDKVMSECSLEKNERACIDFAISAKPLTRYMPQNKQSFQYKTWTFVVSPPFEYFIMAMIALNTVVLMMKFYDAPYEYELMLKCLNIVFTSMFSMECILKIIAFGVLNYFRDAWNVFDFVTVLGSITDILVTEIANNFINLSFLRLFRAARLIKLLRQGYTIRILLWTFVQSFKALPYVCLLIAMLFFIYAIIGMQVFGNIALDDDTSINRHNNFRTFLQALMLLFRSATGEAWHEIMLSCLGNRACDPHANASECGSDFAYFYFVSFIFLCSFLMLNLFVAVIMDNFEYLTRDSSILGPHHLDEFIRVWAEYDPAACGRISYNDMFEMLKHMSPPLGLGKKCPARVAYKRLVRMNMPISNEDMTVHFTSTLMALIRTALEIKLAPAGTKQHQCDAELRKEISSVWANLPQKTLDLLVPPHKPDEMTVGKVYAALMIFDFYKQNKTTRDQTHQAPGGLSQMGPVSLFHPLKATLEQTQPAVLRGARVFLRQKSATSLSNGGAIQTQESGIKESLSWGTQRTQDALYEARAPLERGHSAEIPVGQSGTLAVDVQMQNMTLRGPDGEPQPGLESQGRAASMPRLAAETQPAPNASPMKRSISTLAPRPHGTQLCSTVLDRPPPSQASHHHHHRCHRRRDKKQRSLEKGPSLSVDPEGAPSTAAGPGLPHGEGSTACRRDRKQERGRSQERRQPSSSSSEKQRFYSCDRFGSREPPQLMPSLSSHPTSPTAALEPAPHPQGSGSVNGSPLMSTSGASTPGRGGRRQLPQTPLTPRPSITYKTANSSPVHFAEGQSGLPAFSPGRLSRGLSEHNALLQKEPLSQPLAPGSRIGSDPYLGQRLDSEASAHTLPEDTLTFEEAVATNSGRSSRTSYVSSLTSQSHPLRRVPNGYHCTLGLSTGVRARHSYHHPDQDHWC

Row | Substance | reduction of peak Ca^2+ current density compared to CRMP-2 neurons (whole-cell voltage clamp) [1] | cells exhibiting CaV2.2 staining on the surface [2] | reduction in KCl-stimulated CGRP release compared with TAT-control (10 µM TAT-CBD3) [3]
1 | CBD3 peptide fused to enhanced green fluorescent protein (EGFP) | 64% | 10% | 
2 | TAT-CBD3 (peptide) |  |  | 85%

Source: patent US20180117114A1, “PEPTIDES THAT MODULATE THE EFFECT OF THE CRMP: NEUROFIBROMIN COMPLEX ON SYNAPTIC TRANSMISSION” (Indiana University Research and Technology Coporation, priority 2015, published 2018)
